Results taken from the supplement of paper PMC12338614.
± gives the uncertainty stated by the source.

B1: library; numbered along this chain (parent)
chain: MEVVDPQQLGMFTEGELMSVGMDTFIHRIDSTEVIYQPRRKRAKLIGKYLMGDLLGEGSYGKVKEVLDSETLCRRAVKILKKKKLRRIPNGEANVKKEIQLLRRLRHKNVIQLVDVLYNEEKQKMYMVMEYCVCGMQEMLDSVPEKRFPVCQAHGYFCQLIDGLEYLHSQGIVHKDIKPGNLLLTTGGTLKISDLGVAEALHPFAADDTCRTSQGSPAFQPPEIANGLDTFSGFKVDIWSAGVTLYNITTGLYPFEGDNIYKLFENIGKGSYAIPGDCGPPLSDLLKGMLEYEPAKRFSIRQIRQHSWFRKKHPPAEAPVPIPPSPDTKDRWRSMTVVPYLEDLHGADEDEDLFDIEDDIIYTQDFTVPGQVPEEEASHNGQRRGLPKAVCMNGTEAAQLSTKSRAEGRAPNPARKACSASSKIRRLSACKQQ

Variants of: B1
Experiment: STK11 functional score (HeLa growth suppression), rescaled enrichment; synonymous median = 1, nonsense median = 0 (normalised score)
Conditions: with HeLa; variant type: missense
In short: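 The values are functional scores: wild-type-corrected log ratios of post- versus pre-selection abundance, rescaled to synonymous and nonsense medians, merged over codons and replicate transfections, and carrying bootstrapped error. They derive from codon-randomised (POPCode), codon-optimised STK11 libraries that Bxb1 integrated at an AAVS1 landing pad in HeLa, with three transfections for each of three regions. Sequencing of tiled gDNA amplicons ran on NextSeq, at ~2 million reads per tile.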

Variant	STK11 functional score
C418M	1.54 ± 0.14
E92C	1.68 ± 0.18
L290S	0.0143 ± 0.1
M139E	0.269 ± 0.09
D352A	0.984 ± 0.58
I88T	1.48 ± 0.39
A295F	1.08 ± 0.42
K287S	0.94 ± 0.2
R40W	1.24 ± 0.38
F219I	1.31 ± 0.32
V243I	1.42 ± 0.14
D141L	1.63 ± 0.23
P321L	1.17 ± 0.25
R310C	1.06 ± 0.17
C151S	1.13 ± 0.38
M136G	-0.14 ± 0.082
I274Y	1.16 ± 0.29
E293Q	1.23 ± 0.55
V243S	0.561 ± 0.11
H379L	1.09 ± 0.32
D358L	1.56 ± 0.17
G52L	1.37 ± 0.22
A414D	0.946 ± 0.29
K122R	1.69 ± 0.38

Variant	STK11 functional score
N226K	0.86 ± 0.31
F231W	0.409 ± 0.37
G56C	0.475 ± 0.15
P280Q	1.36 ± 0.4
M127D	0.289 ± 0.08
E57H	1.53 ± 0.34
D194F	-0.213 ± 0.11
Q399E	1.47 ± 0.45
F255V	1.09 ± 0.13
A273V	0.694 ± 0.13
V320S	1.48 ± 0.14
L113A	0.492 ± 0.17
Q302S	1.47 ± 0.16
M139W	1.27 ± 0.78
L55P	1.23 ± 0.39
V372N	1.54 ± 0.25
G135A	1.56 ± 0.28
N94F	0.728 ± 0.22
F309D	-0.479 ± 0.093
G61P	0.916 ± 0.26
G21R	1.2 ± 0.64
N247T	0.951 ± 0.094
Q37W	0.288 ± 0.12
F148P	-0.111 ± 0.086

Variant	STK11 functional score
T209G	1.36 ± 0.13
R211V	1.35 ± 0.2
A153D	-0.157 ± 0.1
P38M	1.09 ± 0.92
K62R	1.61 ± 0.36
H379S	1.55 ± 0.27
G163R	0.0418 ± 0.45
Y253L	1.27 ± 0.12
Q220A	1.3 ± 0.12
A397F	1.35 ± 0.38
W332A	1.56 ± 0.26
K44V	0.967 ± 0.15
C278Y	0.449 ± 0.12
E14D	1.22 ± 0.3
E145N	1.46 ± 0.49
S142M	0.933 ± 0.16
D258W	1.5 ± 0.51
A397G	1.14 ± 0.17
K122S	1.65 ± 0.4
S271T	1.17 ± 0.2
L55D	1.31 ± 0.68
V173P	0.128 ± 0.49
D355L	1.58 ± 0.14
E291T	1.15 ± 0.44

Variant	STK11 functional score
E407C	1.21 ± 0.12
L286E	0.235 ± 0.36
P373A	1.08 ± 0.17
Q399C	1.23 ± 0.5
V197A	1.26 ± 0.69
L353S	1.6 ± 0.14
P373F	1.26 ± 0.47
F366I	1.08 ± 0.28
P413A	1.5 ± 0.2
N247R	0.936 ± 0.16
G227E	0.563 ± 0.19
M129D	1.37 ± 0.36
T336K	1.54 ± 0.18
P179L	0.376 ± 0.075
N94Q	1.2 ± 0.65
N412A	1.53 ± 0.26
V116G	0.415 ± 0.092
T185G	0.548 ± 0.091
P413L	1.31 ± 0.13
R86L	0.854 ± 0.11
Y261T	1.04 ± 0.29
P373C	1.32 ± 0.48
I322Q	0.336 ± 0.09
E375Q	1.12 ± 0.61

Variant	STK11 functional score
E14L	1 ± 0.14
I88Q	-0.36 ± 0.084
R28I	1.41 ± 0.49
I46V	0.613 ± 0.39
V20A	1.29 ± 0.21
P319D	1.52 ± 0.16
I322F	1.25 ± 0.22
L113I	0.313 ± 0.082
Q170F	0.834 ± 0.45
L286A	0.163 ± 0.2
T185I	0.548 ± 0.088
Q432R	1.6 ± 0.16
E92R	1.64 ± 0.4
K388W	1.5 ± 0.15
V320H	1.59 ± 0.27
P323D	1.33 ± 0.44
Y246E	0.0519 ± 0.077
G370L	1.42 ± 0.27
C158S	0.627 ± 0.15
G279V	0.88 ± 0.32
A429G	1.12 ± 0.33
G135Y	1.32 ± 0.09
R425G	1.55 ± 0.27
Y166W	0.846 ± 0.087

Variant	STK11 functional score
L72D	1.51 ± 0.45
Y156L	1.34 ± 0.24
L184W	0.145 ± 0.09
C391L	1.54 ± 0.24
M51I	1.16 ± 0.4
R297P	-0.429 ± 0.077
D194S	-0.236 ± 0.11
G58A	0.935 ± 0.29
E376W	0.781 ± 0.22
M22R	1.65 ± 0.38
P275W	0.995 ± 0.1
C210D	1.37 ± 0.26
A397W	0.847 ± 0.43
L117W	1.29 ± 0.066
P149G	0.926 ± 0.23
D68G	1.08 ± 0.45
N380A	1.51 ± 0.23
D365G	1.55 ± 0.15
K44R	1.12 ± 0.4
T367I	1.38 ± 0.23
C132I	1.32 ± 0.25
S169W	1.25 ± 0.35
G381R	1.48 ± 0.16
Y126W	0.105 ± 0.079

Variant	STK11 functional score
Q399T	1.29 ± 0.25
M139Y	1.53 ± 0.46
G61Y	0.11 ± 0.086
T185P	0.0618 ± 0.18
S422I	1.3 ± 0.21
T71V	1.04 ± 0.34
C418G	1.61 ± 0.24
V114D	1.17 ± 0.27
E407P	1.6 ± 0.15
A205H	1.33 ± 0.13
A200T	1.02 ± 0.82
H306P	0.114 ± 0.26
L55H	1.43 ± 0.47
G408W	1.48 ± 0.2
N259D	1.12 ± 0.63
I361A	1.47 ± 0.26
D343M	1.57 ± 0.2
C132W	-0.606 ± 0.08
P324H	1.48 ± 0.15
E342G	1 ± 0.34
K388E	1.42 ± 0.33
E349D	1.35 ± 0.44
K44T	0.843 ± 0.28
